In the supplement of paper PMC9170038:

System: MS2 coat protein
Assay: apparent KD of MS2 coat protein; designed switch direction (-1 OFF switch, 1 ON switch): -1; higher = weaker reporter binding
In short: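 Normalised cluster fluorescence was curve-fitted, and each design's median over clusters is its apparent KD. Before this, SNAP-549-labelled MS2 coat protein was titrated from 0.7 or 1.5 nM, doubling to 3 µM, over RNA switches transcribed on Illumina chips by stalled E. coli RNA polymerase. Titrations had no input, 200 uM small-molecule ligand, or an oligonucleotide input, and steps lasted 0.8–1.5 h (lowest) to 10–20 min (highest).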

[1] = input ligand: microRNA oligo, concentration not stated
[2] = Eterna round: R95, input ligand: microRNA oligo, concentration not stated
[3] = Eterna round: R95, input ligand: FMN 200 uM
[4] = Eterna round: R95, input ligand: none

Row | Sequence | apparent KD of MS2 coat protein (input ligand: FMN 200 uM) [nM] | apparent KD of MS2 coat protein (input ligand: none) [nM] | apparent KD of MS2 coat protein [1] [nM] | apparent KD of MS2 coat protein [2] [nM] | apparent KD of MS2 coat protein [3] [nM] | apparent KD of MS2 coat protein [4] [nM]
1 | AUUAGCGUAGGAUAUUAGUACAUGUACAUGAGGAUCACCCAUGUGAGGUGAGUCUUAGAUUAAGAAGGGCGAAGAA [EX5 #34] (Eterna round: R97, puzzle: Exclusion 5) | 309 | 704 | – | – | – | –
2 | AUUAUGUUAGGAUAUGCUUAUGGUGGAUAGUCCAAUGUGGUGCAGAAGGGACAUGAGGAUCACCCAUGUACUGA [EX4 #29] (Eterna round: R97, puzzle: Exclusion 4) | 70.5 | 58.6 | – | – | – | –
3 | AUUGUUUAUGUAGGAUAUGCCUGGCGUGCCUUUGCAGAAGGACAUGAGGAUCACCCAUGUAUUGCGGUCUGCGUUCAGAUCGCG [salish99_ExNG1_r4_034] (Eterna round: R96, puzzle: Exclusion NG 1) | 46.9 | 27.4 | 22.5 | – | – | –
4 | AUUUACGGAGGAUAUACUUGAGGAUCACCCAAGUGGAGUCCCGUUUGGGCGGUAAAUAGUAGAAGGCCGUCCUA [jl-ex3-4.46 ViennaUCT mod] (Eterna round: R97, puzzle: Exclusion 3) | 27.7 | 16.2 | – | – | – | –
5 | AUUUAUAAUGUAGGAUAUGGAUUCGAAACGUAUCCAGAAGGACAUGAGGAUCACCCAUGUACAUGAGGAUCACCCAAUUUAUUA [Fiskers ExNg1 - 10] (Eterna round: R96, puzzle: Exclusion NG 1) | 98 | 59.3 | 46.7 | – | – | –
6 | AUUUUGUCAGGAUAUGACUAGUAGGACGAGAGUGCUACUACUUAGAAGGGACAUGAGGAUCACCCAUGUAUUCC [Bring Us a Shrubbery-09] (puzzle: Exclusion 4) | – | – | – | 14.1 | – | –
7 | CAAAAGCGAGGAUAUACAUGAGGAUCACCCAUGUGGCAGCCAUGUAGGAGUGACGUCGGUAGAAGGCGCACCCU [Soaran] (puzzle: Exclusion 3) | – | – | – | 76.2 | – | –
8 | CAAAAGGUAGGAUAUACGAAAAAAAAGGGUAGAAAAAAAACACAUGAGGAUCACCCAUGUAGAAGGACCAAAAA [salish99_ex2_r3_055] (puzzle: Exclusion 2) | – | – | – | 22 | 67.6 | 24.5
9 | CAAAAGGUAGGAUAUACGAAAAAAAAGGGUAGAAAAAAAACACAUGAGGAUCACCCAUGUAGAAGGACCAAAAC [salish99_ex2_r3_042] (puzzle: Exclusion 2) | – | – | – | 22.6 | 95.7 | 21.6
10 | CAAACUUCGCGAGGAUAUGGGAUCAUAUAGAUGCCAGAAGGCGCGACAUGAGGAUCACCCAUGUGUUUUGCCCUGUGAUUCCAG [Eternabot solution 12] (Eterna round: R96, puzzle: Exclusion NG 1) | 22.2 | 21.5 | 16.6 | – | – | –
11 | CACAAGCUUUUUUGAUGCAUUUUAGUUGGUUUCCUUUUUACAUGAGGAUCACCCAUGUUUAUGAAGCUCGAUCUUUU [JR_SV3TOV2_Sub079] (puzzle: Sensor v3, turn-off variant 2) | – | – | – | 49.2 | 54.3 | 60.1
12 | CACCCUGAUGACAAAUUACAUGAGGAUCACCCAUGUGCCUCGCAGGAUAUCCCAGCACGUCGCAAGGAGAAGGGCGACGCGCCA [Ralerira] (Eterna round: R96, puzzle: Exclusion NG 3) | 31.5 | 41.3 | 23.9 | – | – | –
13 | CACCGUUACAGAGGAUAUGACACAUGAGGAUCACCCAUGUAAUAAAUGAGAAUUUCGAAUGUAACUCAGAAGGCUGGAAUCGGC [Ostricism 77 - Jieux - Exclusion NG 2] (Eterna round: R96, puzzle: Exclusion NG 2) | – | – | 22.1 | – | – | –
14 | CACCGUUACAGAGGAUAUGACACAUGAGGAUCACCCAUGUAAUAAAUGAGAAUUUCGAAUGUACCUCAGAAGGCUGGAACCGGC [Ostricism 78 - Jieux - Exclusion NG 2] (Eterna round: R96, puzzle: Exclusion NG 2) | 61.2 | 38.7 | 31.5 | – | – | –
15 | CACCUGAAGACAGGAUAUCAUACAUGAGGAUCACCCAUGUAAUAAAUGAGAAUUUCGAAUGUAAUUGAGAAGGGUCGAUAAGGC [Ostricism 91 - Jieux - Exclusion NG 2] (Eterna round: R96, puzzle: Exclusion NG 2) | 78.9 | 30.6 | 30.6 | – | – | –
16 | CACGUGUCAGGAUAUAGGACAGAUAUAGUCACAAUCUCUGCCUAGAAGGGACAUGAGGAUCACCCAUGUCUAUA [EX4 C.17] (Eterna round: R97, puzzle: Exclusion 4) | 27.6 | 20.5 | – | – | – | –

Row | Sequence | apparent KD of MS2 coat protein (input ligand: FMN 200 uM) [nM] | apparent KD of MS2 coat protein (input ligand: none) [nM] | apparent KD of MS2 coat protein [1] [nM] | apparent KD of MS2 coat protein [2] [nM] | apparent KD of MS2 coat protein [3] [nM] | apparent KD of MS2 coat protein [4] [nM]
17 | CAGACACAUGAGGAUCACCCAUGUAAGGAUAUGAACUGUGGUAACGGAGCCAGCGGGUUCAGAAGGUGCGUGAC [Eternabot (L1) Solution 19] (Eterna round: R97, puzzle: Exclusion 1) | 77.9 | 91.4 | – | – | – | –
18 | CAGCUGAAAGUCAGGAUAUCUAGAGCGAUAGCUCUAGAGAAGGGACAUGAGGAUCACCCAUGUGGUCACAGCUG [BmEx4/5-A4] (Eterna round: R97, puzzle: Brourd's mod of Exclusion 4) | 169 | 648 | – | – | – | –
19 | CAGCUGAAUGUCAGGAUAUCUAGAGCGAUAGCUCUAGAGAAGGGACAUGAGGAUCACCCAUGUCACUCCAGCUG [BmEx4/3-B4] (Eterna round: R97, puzzle: Brourd's mod of Exclusion 4) | 29.5 | 18.2 | – | – | – | –
20 | CAGCUGUGAGGAUAUACAUGAGGAUCACCCAUGUUAAGGAAGUGGUGUAUAUUGUAGUGUAGAAGGCACUUGUC [JR_Ex3_Sub026] (Eterna round: R97, puzzle: Exclusion 3) | 234 | 123 | – | – | – | –
21 | CAGGACAGAGGAUAUACAUAGAUACAGAUUCAUGUAGAACUACAUGAGGAUCACCCAUGUAGAAGGCUGACCUG [Fiskers Ex 2 - 4] (Eterna round: R96, puzzle: Exclusion 2) | 311 | 31.5 | 23.5 | – | – | –
22 | CAGGACAGAGGAUAUACAUAGAUACAGAUUCAUGUAGAACUACAUGAGGAUCACCCAUGUAGAAGGCUGACCUG [Fiskers Ex 2 - 4] (puzzle: Exclusion 2) | – | – | – | 27.8 | – | –
23 | CAGGAUAGAGGAUAUACAUAGAUACAGAUUCAUGUGAUCCUACAUGAGGAUCACCCAUGUAGAAGGCUAACCUG [Fiskers Ex 2 - 24] (puzzle: Exclusion 2) | – | – | – | 306 | – | –
24 | CAGGAUAGAGGAUAUGCAUAGAUACAGAUUCAUGUAAUCCUACAUGAGGAUCACCCAUGUAGAAGGCUAUCCUG [Fiskers Ex 2 - 17] (puzzle: Exclusion 2) | – | – | – | 14.7 | – | –
25 | CAGGGCAUGCGAGGAUAUAGCAACAUGAGGAUCACCCAUGUAUAAGGGUGUCCUAGGCAUGCGCGCUAGAAGGCGCUGGUUCUC [Onreusve] (Eterna round: R96, puzzle: Exclusion NG 2) | 431 | 75.5 | 18.9 | – | – | –
26 | CAGUACAGAGGAUAUACAUGAGGAUCACCCAUGUGUUUCAGGUACGAAAGUACCGAAUGUAGAAGGCUGUACUG [jl-ex3-4.25 salish99 mod] (Eterna round: R97, puzzle: Exclusion 3) | 244 | 25.6 | – | – | – | –
27 | CAGUACAGAGGAUAUACAUGAGGAUCACCCAUGUGUUUCAGGUACGAGAGUACCGAGUGUAGAAGGCUGUACUG [jl-ex3-4.28 salish99 mod] (Eterna round: R97, puzzle: Exclusion 3) | 244 | 38.1 | – | – | – | –
28 | CAGUACUGAGGAUAUACAUGAGGAUCACCCAUGUGAGAGAUACUAGUGAGGUCGAUUAGUAGAAGGCAGUACUG [Mat X3R4 m3] (Eterna round: R97, puzzle: Exclusion 3) | 856 | 35.7 | – | – | – | –
29 | CAGUACUGAGGAUAUACAUGAGGAUCACCCAUGUGUGUGAGAUUUGUGUGGUUGUUUUGUAGAAGGCGGUGCUG [JR_Ex3_Sub031] (Eterna round: R97, puzzle: Exclusion 3) | 19.1 | 91.2 | – | – | – | –
30 | CAGUACUGAGGAUAUACAUGAGGAUCACCCAUGUGUUUUCUACUAGGAAACUAGGUAUGUAGAAGGCAGUACUG [Omei Ex3 Mod of Eli 4.27 v3] (Eterna round: R97, puzzle: Exclusion 3) | 194 | 22.9 | – | – | – | –
31 | CAGUACUGAGGAUAUACAUGAGGAUCACCCAUGUUGAGAUGAAAAGAAAGAGUUAAAUGUAGAAGGCGGUGCUG [JR_Ex3_Sub047] (Eterna round: R97, puzzle: Exclusion 3) | 523 | 71.1 | – | – | – | –
